Results taken from EP4786492A1.
Values belong to the binder of their own block, whether it stands above or below them.

Experiments:
[1] = molecular target: human DLL3 endogenously expressed on SHP77 and NCI-H82 cells (human) (UniProt Q9NYJ7); test: FACS SHP77 cells, 4 nM
[2] = molecular target: human DLL3 endogenously expressed on SHP77 and NCI-H82 cells (human) (UniProt Q9NYJ7); test: FACS SHP77 cells, 20 nM
[3] = molecular target: human DLL3 endogenously expressed on SHP77 and NCI-H82 cells (human) (UniProt Q9NYJ7); test: FACS SHP77 cells, 0.8 nM
[4] = molecular target: human DLL3 endogenously expressed on SHP77 and NCI-H82 cells (human) (UniProt Q9NYJ7); test: FACS SHP77 cells, 100 nM
[5] = molecular target: human DLL3 endogenously expressed on SHP77 and NCI-H82 cells (human) (UniProt Q9NYJ7); test: FACS SHP77 cells, 0.16 nM
[6] = molecular target: human DLL3 endogenously expressed on SHP77 and NCI-H82 cells (human) (UniProt Q9NYJ7); test: FACS SHP77 cells, 0.032 nM
[7] = molecular target: human DLL3 endogenously expressed on SHP77 and NCI-H82 cells (human) (UniProt Q9NYJ7); test: FACS SHP77 cells, 0.0064 nM
[8] = molecular target: human DLL3 endogenously expressed on SHP77 and NCI-H82 cells (human) (UniProt Q9NYJ7); test: FACS SHP77 cells, 0.00128 nM
[9] = molecular target: human delta-like ligand 3 (DLL3) on SHP77 cells (human) (UniProt Q9NYJ7); test: FACS on SHP77 cells
[10] = molecular target: DLL3 endogenously expressed on NCI-H82 cells (UniProt Q9NYJ7); test: FACS on NCI-H82 cells; antibody 4 nM
[11] = molecular target: DLL3 endogenously expressed on NCI-H82 cells (UniProt Q9NYJ7); test: FACS on NCI-H82 cells; antibody 20 nM
[12] = molecular target: DLL3 endogenously expressed on NCI-H82 cells (UniProt Q9NYJ7); test: FACS on NCI-H82 cells; antibody 0.8 nM
[13] = molecular target: DLL3 endogenously expressed on NCI-H82 cells (UniProt Q9NYJ7); test: FACS on NCI-H82 cells; antibody 100 nM
[14] = molecular target: DLL3 endogenously expressed on NCI-H82 cells (UniProt Q9NYJ7); test: FACS on NCI-H82 cells; antibody 0.16 nM
[15] = molecular target: human DLL3 protein expressed on CHO-K1 recombinant cells (human DLL3 extracellular segment fused to EpCAM transmembrane and intracellular regions) (human) (UniProt Q9NYJ7); test: FACS, CHO-K1 hDLL3 cells, 4 nM antibody
[16] = molecular target: mouse DLL3 on CHO-K1-mDLL3 cells (mouse) (UniProt O88516); test: FACS, CHO-K1-mDLL3 cells, 4 nM antibody
[17] = molecular target: DLL3 endogenously expressed on NCI-H82 cells (UniProt Q9NYJ7); test: FACS on NCI-H82 cells; antibody 0.032 nM
[18] = molecular target: human DLL3 protein expressed on CHO-K1 recombinant cells (human DLL3 extracellular segment fused to EpCAM transmembrane and intracellular regions) (human) (UniProt Q9NYJ7); test: FACS, CHO-K1 hDLL3 cells, 20 nM antibody
[19] = molecular target: mouse DLL3 on CHO-K1-mDLL3 cells (mouse) (UniProt O88516); test: FACS, CHO-K1-mDLL3 cells, 20 nM antibody
[20] = molecular target: DLL3 endogenously expressed on NCI-H82 cells (UniProt Q9NYJ7); test: FACS on NCI-H82 cells; antibody 0.0064 nM
[21] = molecular target: human DLL3 protein expressed on CHO-K1 recombinant cells (human DLL3 extracellular segment fused to EpCAM transmembrane and intracellular regions) (human) (UniProt Q9NYJ7); test: FACS, CHO-K1 hDLL3 cells, 0.8 nM antibody
[22] = molecular target: human DLL3 protein expressed on CHO-K1 recombinant cells (human DLL3 extracellular segment fused to EpCAM transmembrane and intracellular regions) (human) (UniProt Q9NYJ7); test: FACS, CHO-K1 hDLL3 cells, 100 nM antibody
[23] = molecular target: mouse DLL3 on CHO-K1-mDLL3 cells (mouse) (UniProt O88516); test: FACS, CHO-K1-mDLL3 cells, 0.8 nM antibody
[24] = molecular target: mouse DLL3 on CHO-K1-mDLL3 cells (mouse) (UniProt O88516); test: FACS, CHO-K1-mDLL3 cells, 100 nM antibody
[25] = molecular target: DLL3 endogenously expressed on NCI-H82 cells (UniProt Q9NYJ7); test: FACS on NCI-H82 cells; antibody 0.00128 nM
[26] = molecular target: human DLL3 protein expressed on CHO-K1 recombinant cells (human DLL3 extracellular segment fused to EpCAM transmembrane and intracellular regions) (human) (UniProt Q9NYJ7); test: FACS, CHO-K1 hDLL3 cells, 0.16 nM antibody
[27] = molecular target: mouse DLL3 on CHO-K1-mDLL3 cells (mouse) (UniProt O88516); test: FACS, CHO-K1-mDLL3 cells, 0.16 nM antibody
[28] = molecular target: human DLL3 protein expressed on CHO-K1 recombinant cells (human DLL3 extracellular segment fused to EpCAM transmembrane and intracellular regions) (human) (UniProt Q9NYJ7); test: FACS, CHO-K1 hDLL3 cells, 0.032 nM antibody
[29] = molecular target: monkey DLL3 on CHO-K1-cyno DLL3 cells (cynomolgus monkey); test: FACS, CHO-K1-cyno DLL3 cells, 4 nM antibody
[30] = molecular target: mouse DLL3 on CHO-K1-mDLL3 cells (mouse) (UniProt O88516); test: FACS, CHO-K1-mDLL3 cells, 0.032 nM antibody
[31] = molecular target: human DLL3 protein expressed on CHO-K1 recombinant cells (human DLL3 extracellular segment fused to EpCAM transmembrane and intracellular regions) (human) (UniProt Q9NYJ7); test: FACS, CHO-K1 hDLL3 cells, 0.0064 nM antibody
[32] = molecular target: monkey DLL3 on CHO-K1-cyno DLL3 cells (cynomolgus monkey); test: FACS, CHO-K1-cyno DLL3 cells, 20 nM antibody
[33] = molecular target: mouse DLL3 on CHO-K1-mDLL3 cells (mouse) (UniProt O88516); test: FACS, CHO-K1-mDLL3 cells, 0.0064 nM antibody
[34] = molecular target: human DLL3 protein expressed on CHO-K1 recombinant cells (human DLL3 extracellular segment fused to EpCAM transmembrane and intracellular regions) (human) (UniProt Q9NYJ7); test: FACS, CHO-K1 hDLL3 cells, 0.00128 nM antibody
[35] = molecular target: monkey DLL3 on CHO-K1-cyno DLL3 cells (cynomolgus monkey); test: FACS, CHO-K1-cyno DLL3 cells, 0.8 nM antibody
[36] = molecular target: monkey DLL3 on CHO-K1-cyno DLL3 cells (cynomolgus monkey); test: FACS, CHO-K1-cyno DLL3 cells, 100 nM antibody
[37] = molecular target: mouse DLL3 on CHO-K1-mDLL3 cells (mouse) (UniProt O88516); test: FACS, CHO-K1-mDLL3 cells, 0.00128 nM antibody
[38] = molecular target: monkey DLL3 on CHO-K1-cyno DLL3 cells (cynomolgus monkey); test: FACS, CHO-K1-cyno DLL3 cells, 0.16 nM antibody
[39] = molecular target: monkey DLL3 on CHO-K1-cyno DLL3 cells (cynomolgus monkey); test: FACS, CHO-K1-cyno DLL3 cells, 0.032 nM antibody
[40] = molecular target: monkey DLL3 on CHO-K1-cyno DLL3 cells (cynomolgus monkey); test: FACS, CHO-K1-cyno DLL3 cells, 0.0064 nM antibody
[41] = molecular target: monkey DLL3 on CHO-K1-cyno DLL3 cells (cynomolgus monkey); test: FACS, CHO-K1-cyno DLL3 cells, 0.00128 nM antibody
[42] = molecular target: human DLL1 protein (Acro, Cat. No. DL1-H52H8) (human) (UniProt O00548); test: ELISA, coated hDLL1; maximum over 0.1, 1, 10, 100 nM antibody
[43] = molecular target: human DLL4 protein (Acro, Cat. No. DL4-H5227) (human) (UniProt Q9NR61); test: ELISA, coated hDLL4; maximum over 0.1, 1, 10, 100 nM antibody
[44] = molecular target: human DLL3 protein (extracellular segment, His tag) (human) (UniProt Q9NYJ7); test: SPR (Biacore 8K), antibody captured on Protein A chip, DLL3 antigen in solution, 1:1 Langmuir fit
human DLL3 protein (extracellular segment, His tag) (human), sequence (Q9NYJ7 27-492): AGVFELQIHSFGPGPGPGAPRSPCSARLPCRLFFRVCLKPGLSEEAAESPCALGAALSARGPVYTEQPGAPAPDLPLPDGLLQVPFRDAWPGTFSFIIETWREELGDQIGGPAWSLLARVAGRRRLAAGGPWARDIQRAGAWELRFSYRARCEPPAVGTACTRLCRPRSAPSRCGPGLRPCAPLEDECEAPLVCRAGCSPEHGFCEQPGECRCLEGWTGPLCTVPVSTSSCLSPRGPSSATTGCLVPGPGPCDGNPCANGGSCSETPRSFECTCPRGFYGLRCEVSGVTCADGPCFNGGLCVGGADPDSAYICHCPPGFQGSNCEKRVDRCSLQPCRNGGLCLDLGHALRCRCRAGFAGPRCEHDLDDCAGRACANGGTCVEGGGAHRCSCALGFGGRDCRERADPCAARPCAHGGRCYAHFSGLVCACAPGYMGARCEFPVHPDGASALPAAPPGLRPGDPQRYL

human DLL3 protein expressed on CHO-K1 recombinant cells (human DLL3 extracellular segment fused to EpCAM transmembrane and intracellular regions) (human), sequence (Q9NYJ7 other isoform, or with tags, fused parts or gaps limits assumed): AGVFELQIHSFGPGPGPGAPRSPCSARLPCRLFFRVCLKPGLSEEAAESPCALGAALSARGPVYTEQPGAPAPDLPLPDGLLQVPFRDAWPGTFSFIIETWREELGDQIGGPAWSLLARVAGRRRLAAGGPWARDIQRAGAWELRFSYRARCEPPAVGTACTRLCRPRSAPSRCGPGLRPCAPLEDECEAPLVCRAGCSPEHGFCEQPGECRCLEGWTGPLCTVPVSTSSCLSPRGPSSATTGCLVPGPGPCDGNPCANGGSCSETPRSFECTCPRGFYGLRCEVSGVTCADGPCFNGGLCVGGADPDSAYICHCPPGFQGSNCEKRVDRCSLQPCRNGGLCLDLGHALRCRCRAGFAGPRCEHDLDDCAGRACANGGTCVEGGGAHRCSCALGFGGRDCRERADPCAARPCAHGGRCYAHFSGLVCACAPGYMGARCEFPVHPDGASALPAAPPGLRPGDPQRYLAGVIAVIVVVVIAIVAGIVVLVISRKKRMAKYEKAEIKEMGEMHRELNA
monkey DLL3 on CHO-K1-cyno DLL3 cells (cynomolgus monkey), sequence (chain, as listed by the source limits assumed): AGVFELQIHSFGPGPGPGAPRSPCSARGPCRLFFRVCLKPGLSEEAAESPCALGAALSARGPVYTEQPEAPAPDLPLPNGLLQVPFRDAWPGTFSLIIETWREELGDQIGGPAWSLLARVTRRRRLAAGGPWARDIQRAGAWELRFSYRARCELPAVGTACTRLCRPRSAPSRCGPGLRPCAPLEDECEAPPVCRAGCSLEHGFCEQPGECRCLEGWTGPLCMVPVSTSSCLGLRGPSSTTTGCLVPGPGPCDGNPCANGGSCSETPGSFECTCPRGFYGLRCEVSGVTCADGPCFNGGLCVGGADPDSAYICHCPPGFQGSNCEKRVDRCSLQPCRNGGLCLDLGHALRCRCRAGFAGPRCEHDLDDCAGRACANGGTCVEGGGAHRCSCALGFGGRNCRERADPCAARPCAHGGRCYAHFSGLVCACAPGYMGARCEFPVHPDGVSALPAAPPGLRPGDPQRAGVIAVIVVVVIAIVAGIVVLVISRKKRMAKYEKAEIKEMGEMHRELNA
human delta-like ligand 3 (DLL3) on SHP77 cells (human), sequence (Q9NYJ7 27-618, stated change not applied): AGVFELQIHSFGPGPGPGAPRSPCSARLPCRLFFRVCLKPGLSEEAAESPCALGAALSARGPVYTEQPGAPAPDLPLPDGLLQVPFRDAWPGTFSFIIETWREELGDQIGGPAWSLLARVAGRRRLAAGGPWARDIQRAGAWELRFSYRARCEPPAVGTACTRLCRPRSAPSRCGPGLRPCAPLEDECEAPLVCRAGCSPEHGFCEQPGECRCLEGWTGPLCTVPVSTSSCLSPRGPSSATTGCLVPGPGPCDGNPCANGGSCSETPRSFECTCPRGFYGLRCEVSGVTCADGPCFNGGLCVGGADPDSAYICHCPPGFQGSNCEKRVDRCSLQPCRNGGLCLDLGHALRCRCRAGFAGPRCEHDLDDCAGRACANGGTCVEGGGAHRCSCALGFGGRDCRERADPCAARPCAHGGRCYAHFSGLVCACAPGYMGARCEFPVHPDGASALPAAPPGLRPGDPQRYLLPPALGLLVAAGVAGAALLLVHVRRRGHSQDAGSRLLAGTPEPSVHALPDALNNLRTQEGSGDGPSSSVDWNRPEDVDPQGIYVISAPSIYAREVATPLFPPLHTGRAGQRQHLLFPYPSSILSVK
DLL3 endogenously expressed on NCI-H82 cells, sequence (Q9NYJ7 27-618): as the sequence (Q9NYJ7 27-618, stated change not applied) above
human DLL3 endogenously expressed on SHP77 and NCI-H82 cells (human), sequence (Q9NYJ7 27-618): as the sequence (Q9NYJ7 27-618, stated change not applied) above
mouse DLL3 on CHO-K1-mDLL3 cells (mouse), sequence (O88516 other isoform, or with tags, fused parts or gaps limits assumed): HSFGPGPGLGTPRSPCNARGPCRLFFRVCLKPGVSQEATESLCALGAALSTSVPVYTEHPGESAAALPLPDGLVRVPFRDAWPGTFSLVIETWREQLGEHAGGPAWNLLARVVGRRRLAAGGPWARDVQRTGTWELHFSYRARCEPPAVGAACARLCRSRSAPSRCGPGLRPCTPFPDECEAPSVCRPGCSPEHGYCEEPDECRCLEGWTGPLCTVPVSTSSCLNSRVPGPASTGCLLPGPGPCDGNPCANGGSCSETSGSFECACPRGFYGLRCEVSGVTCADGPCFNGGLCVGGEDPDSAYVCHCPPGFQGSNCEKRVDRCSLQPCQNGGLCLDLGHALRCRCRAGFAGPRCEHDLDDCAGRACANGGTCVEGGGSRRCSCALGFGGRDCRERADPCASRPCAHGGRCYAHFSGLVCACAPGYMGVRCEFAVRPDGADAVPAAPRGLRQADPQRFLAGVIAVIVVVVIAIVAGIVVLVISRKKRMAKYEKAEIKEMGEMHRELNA
human DLL4 protein (Acro, Cat. No. DL4-H5227) (human), sequence (Q9NR61 27-524 limits assumed): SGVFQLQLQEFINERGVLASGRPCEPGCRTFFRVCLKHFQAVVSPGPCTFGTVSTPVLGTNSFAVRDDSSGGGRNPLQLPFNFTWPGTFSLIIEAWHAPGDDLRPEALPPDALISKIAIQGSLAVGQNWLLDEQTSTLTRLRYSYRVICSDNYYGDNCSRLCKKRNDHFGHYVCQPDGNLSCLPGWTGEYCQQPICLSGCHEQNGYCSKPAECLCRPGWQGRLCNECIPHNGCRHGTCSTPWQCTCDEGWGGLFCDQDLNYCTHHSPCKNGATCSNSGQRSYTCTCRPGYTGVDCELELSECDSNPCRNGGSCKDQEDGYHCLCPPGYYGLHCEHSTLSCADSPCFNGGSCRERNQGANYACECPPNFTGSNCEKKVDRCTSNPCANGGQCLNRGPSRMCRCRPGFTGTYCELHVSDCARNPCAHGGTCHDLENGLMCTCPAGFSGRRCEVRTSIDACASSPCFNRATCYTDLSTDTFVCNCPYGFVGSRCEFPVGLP
human DLL1 protein (Acro, Cat. No. DL1-H52H8) (human), sequence (O00548 18-540 limits assumed): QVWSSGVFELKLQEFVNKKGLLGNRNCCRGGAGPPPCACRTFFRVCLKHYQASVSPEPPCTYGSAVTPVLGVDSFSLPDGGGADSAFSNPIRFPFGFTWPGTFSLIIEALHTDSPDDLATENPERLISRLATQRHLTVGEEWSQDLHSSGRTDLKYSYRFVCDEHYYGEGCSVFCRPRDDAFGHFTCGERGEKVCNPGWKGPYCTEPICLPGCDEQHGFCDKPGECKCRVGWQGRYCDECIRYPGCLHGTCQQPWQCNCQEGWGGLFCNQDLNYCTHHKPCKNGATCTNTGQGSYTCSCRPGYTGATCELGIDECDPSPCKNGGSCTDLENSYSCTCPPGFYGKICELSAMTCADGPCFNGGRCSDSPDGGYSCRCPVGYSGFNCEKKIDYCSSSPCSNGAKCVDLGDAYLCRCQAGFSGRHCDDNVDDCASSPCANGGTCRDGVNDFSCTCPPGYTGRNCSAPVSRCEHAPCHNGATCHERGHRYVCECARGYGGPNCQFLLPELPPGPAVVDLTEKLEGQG

MFI [1]: 451 MFI
MFI [2]: 486 MFI
MFI [3]: 404 MFI
MFI [4]: 543 MFI
MFI [5]: 287 MFI
MFI [6]: 172 MFI
MFI [7]: 125 MFI
MFI [8]: 117 MFI
B1: mab005 scFv-hFc (Fc fusion, not shown: small tags and cut ends; a dimerising Fc or GST)
scFv (part 1 of 2): DIVLTQSPATLSVTPGDSVSLSCRASQSVSNDLHWYQQKSHESPRLLIKYASQSISGIPSRFSGSGSGTDFTLTINSVETEDFGMYFCQQSNNWPYTFGGGTKLEMK
scFv (part 2 of 2): QVQLQQSGAELMKPGASVTLSCKATGYTLPGYWIEWVKQRPGHGLEWIGEILPGSSSANYNEKFKGKATFTADTSSNTAYMQLSSLTTEDSAIYYCASTYGTSLDYWGQGTTLTVSS

MFI at 0.00128 nM [9]: 215 MFI
MFI at 0.0064 nM [9]: 305 MFI
MFI at 0.032 nM [9]: 554 MFI
MFI at 0.16 nM [9]: 1060 MFI
MFI at 0.8 nM [9]: 1410 MFI
MFI at 4 nM [9]: 1490 MFI
MFI at 20 nM [9]: 1660 MFI
MFI at 100 nM [9]: 1900 MFI
MFI [10]: 454
MFI [11]: 504
MFI [12]: 434
MFI [13]: 596
MFI [14]: 397
MFI [15]: 13600 MFI
MFI [16]: 485 MFI
MFI [17]: 252
MFI [18]: 14500 MFI
MFI [19]: 523 MFI
MFI [20]: 157
MFI [21]: 11300 MFI
MFI [22]: 15200 MFI
MFI [23]: 404 MFI
MFI [24]: 554 MFI
MFI [25]: 123
MFI [26]: 4120 MFI
MFI [27]: 278 MFI
MFI [28]: 1130 MFI
MFI [29]: 8440 MFI
MFI [30]: 165 MFI
MFI [31]: 411 MFI
MFI [32]: 9050 MFI
MFI [33]: 110 MFI
MFI [34]: 227 MFI
MFI [35]: 7500 MFI
MFI [36]: 10500 MFI
MFI [37]: 98 MFI
MFI [38]: 3350 MFI
MFI [39]: 1110 MFI
MFI [40]: 424 MFI
MFI [41]: 239 MFI
Emax of OD450 nm binding value [42]: 0.07 OD450 nm
Emax of OD450 nm binding value [43]: 0.08 OD450 nm
Kd [44]: 0.286 nM
koff [44]: 0.000119 s⁻¹
kon [44]: 415000 M⁻¹ s⁻¹
B2: Hab006VL4VH1-hFc (scFv, part only; not given: scFv linker and human IgG1 Fc, V domains shown, not shown: another chain or arm of the molecule; a dimerising Fc or GST; small tags and cut ends)
VL: DIVMTQSPDSLAVSLGERATINCRATKSISKYLAWYQQKPGQTNKLLIFSGSTLQSGVPDRFSGSGSGTDFTLTISSLQAEDVAVYYCQQHHEYPYTFGGGTKVEIK
VH: EVQLVQSGAEVKKPGASVKVSCKASGYTFTSYWMHWVRQAPGQRLEWMGVIDPSDSLANYNQEFKGRVTITVDTSASTAYMELSSLRSEDTAVYYCARDSTVVAPMDYWGQGTTVTVSS

MFI [1]: 535 MFI
MFI [2]: 548 MFI
MFI [3]: 498 MFI
MFI [4]: 596 MFI
MFI [5]: 518 MFI
MFI [6]: 371 MFI
MFI [7]: 255 MFI
MFI [8]: 197 MFI
B3: mab002 scFv-hFc (Fc fusion, not shown: small tags and cut ends; a dimerising Fc or GST)
scFv (part 1 of 2): QIVLTQSPAIMSASPGEKVTMTCSARSSVSYMQWYQQKSGTSPKRWIYDTSKLASGVPARFSGSGSGTSYSLTISTMEAEDAATYYCQQWSSDPPTFGGGTKLEIK
scFv (part 2 of 2): QIQLVQSGPELKKPGETVKISCKASGYTFTNYGMNWLKQAPGKGLKWMGWINTYTGESTYADDFKGRFAFSLETSASTVYLQINNLKNEDMATYFCARMGDGYYDFTMDYWGQGTSVTVSS
